Laboratory results as given in patent US20210032299A1 (Eli Lilly, published 2021).
Starred links: 1 amine or outer side, 2 acyl side, 3 side chain; linkers in the order of their positions; H or OH if unused. Non-standard residues stand in square brackets, D forms with d. Groups on a side chain read outwards from the residue. No end group written: not given here. *: point of attachment. C20 diacid = O=C(O)CCCCCCCCCCCCCCCCCCC(=O)*; C18 diacid = O=C(O)CCCCCCCCCCCCCCCCC(=O)*; αMePhe(2-F) = C[C@](N)(Cc1ccccc1F)C(=O)O; γGlu = O=C(O)[C@H](CCC(=O)[*:2])N[*:1]; αMeY = C[C@](N)(Cc1ccc(O)cc1)C(=O)O; 4Pal = N[C@@H](Cc1ccncc1)C(=O)O; αMeL = CC(C)C[C@](C)(N)C(=O)O; Orn = NCCC[C@H](N)C(=O)O; AEEA = NCCOCCOCC(=O)O; Aib = CC(C)(N)C(=O)O

Legend:
Test in all cases: cell-based or functional assay
human glucagon receptor = human glucagon receptor (human, UniProt P47871 26-477)
human glucagon receptor, sequence (P47871 26-477): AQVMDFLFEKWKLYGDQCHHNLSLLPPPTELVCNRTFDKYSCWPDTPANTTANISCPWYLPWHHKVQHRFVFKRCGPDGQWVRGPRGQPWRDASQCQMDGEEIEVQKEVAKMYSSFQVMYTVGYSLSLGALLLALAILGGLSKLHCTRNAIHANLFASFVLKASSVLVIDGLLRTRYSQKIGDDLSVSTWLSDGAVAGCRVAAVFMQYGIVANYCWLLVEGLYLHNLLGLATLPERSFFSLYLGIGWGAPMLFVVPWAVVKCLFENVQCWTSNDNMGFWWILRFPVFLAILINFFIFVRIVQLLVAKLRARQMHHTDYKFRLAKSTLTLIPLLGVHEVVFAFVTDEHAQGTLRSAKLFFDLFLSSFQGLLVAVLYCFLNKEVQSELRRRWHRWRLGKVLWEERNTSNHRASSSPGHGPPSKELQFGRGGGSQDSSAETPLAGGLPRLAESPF

[1] = target: T1, human glucose-dependent insulinotropic peptide receptor (human, UniProt P48546 22-466)
T1 sequence (looked up): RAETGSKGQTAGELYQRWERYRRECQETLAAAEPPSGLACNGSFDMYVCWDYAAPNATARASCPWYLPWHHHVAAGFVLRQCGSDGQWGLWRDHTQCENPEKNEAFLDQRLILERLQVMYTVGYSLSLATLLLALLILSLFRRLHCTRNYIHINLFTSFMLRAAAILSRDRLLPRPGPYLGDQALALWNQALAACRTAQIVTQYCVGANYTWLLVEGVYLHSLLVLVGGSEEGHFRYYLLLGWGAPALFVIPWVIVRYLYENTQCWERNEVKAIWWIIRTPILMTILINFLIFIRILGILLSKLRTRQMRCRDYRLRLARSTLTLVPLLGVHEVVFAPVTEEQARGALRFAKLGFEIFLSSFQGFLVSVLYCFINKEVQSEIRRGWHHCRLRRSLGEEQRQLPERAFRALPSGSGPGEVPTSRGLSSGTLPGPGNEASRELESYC

human GLP-1 receptor = human GLP-1 receptor (human, UniProt P43220 24-463)

Row | Binder | hGcgR cAMP Rel EC50 (human glucagon receptor) [nM] | hGIPR cAMP Rel EC50 [1] [nM] | hGLP1R cAMP Rel EC50 (human GLP-1 receptor) [nM]
1 | Y[Aib]EGTFISDYSI[αMeL]LDKIHQ[Aib]DFVEYK([AEEA-AEEA-γGlu-C20 diacid])LEQGPSSGAPPPS-NH2 (N-terminus assumed; SMILES CC[C@H](C)[C@H](NC(=O)[C@H](CCCCN)NC(=O)[C@H](CC(=O)O)NC(=O)[C@H](CC(C)C)NC(=O)[C@](C)(CC(C)C)NC(=O)[C@@H](NC(=O)[C@H](CO)NC(=O)[C@H](Cc1ccc(O)cc1)NC(=O)[C@H](CC(=O)O)NC(=O)[C@H](CO)NC(=O)[C@@H](NC(=O)[C@H](Cc1ccccc1)NC(=O)[C@@H](NC(=O)CNC(=O)[C@H](CCC(=O)O)NC(=O)C(C)(C)NC(=O)[C@@H](N)Cc1ccc(O)cc1)[C@@H](C)O)[C@@H](C)CC)[C@@H](C)CC)C(=O)N[C@@H](Cc1c[nH]cn1)C(=O)N[C@@H](CCC(N)=O)C(=O)NC(C)(C)C(=O)N[C@@H](CC(=O)O)C(=O)N[C@@H](Cc1ccccc1)C(=O)N[C@H](C(=O)N[C@@H](CCC(=O)O)C(=O)N[C@@H](Cc1ccc(O)cc1)C(=O)N[C@@H](CCCCNC(=O)COCCOCCNC(=O)COCCOCCNC(=O)CC[C@H](NC(=O)CCCCCCCCCCCCCCCCCCC(=O)O)C(=O)O)C(=O)N[C@@H](CC(C)C)C(=O)N[C@@H](CCC(=O)O)C(=O)N[C@@H](CCC(N)=O)C(=O)NCC(=O)N1CCC[C@H]1C(=O)N[C@@H](CO)C(=O)N[C@@H](CO)C(=O)NCC(=O)N[C@@H](C)C(=O)N1CCC[C@H]1C(=O)N1CCC[C@H]1C(=O)N1CCC[C@H]1C(=O)N[C@@H](CO)C(N)=O)C(C)C) [Example 92] | > 5000 | 0.0191 | > 5000
2 | Y[dA]EGTFISDYSILLDKIAQ[Aib]DFVNWK([AEEA-AEEA-γGlu-C18 diacid])LAQGPSSGAPPPS-NH2 (N-terminus assumed; SMILES CC[C@H](C)[C@H](NC(=O)[C@H](CCCCN)NC(=O)[C@H](CC(=O)O)NC(=O)[C@H](CC(C)C)NC(=O)[C@H](CC(C)C)NC(=O)[C@@H](NC(=O)[C@H](CO)NC(=O)[C@H](Cc1ccc(O)cc1)NC(=O)[C@H](CC(=O)O)NC(=O)[C@H](CO)NC(=O)[C@@H](NC(=O)[C@H](Cc1ccccc1)NC(=O)[C@@H](NC(=O)CNC(=O)[C@H](CCC(=O)O)NC(=O)[C@@H](C)NC(=O)[C@@H](N)Cc1ccc(O)cc1)[C@@H](C)O)[C@@H](C)CC)[C@@H](C)CC)C(=O)N[C@@H](C)C(=O)N[C@@H](CCC(N)=O)C(=O)NC(C)(C)C(=O)N[C@@H](CC(=O)O)C(=O)N[C@@H](Cc1ccccc1)C(=O)N[C@H](C(=O)N[C@@H](CC(N)=O)C(=O)N[C@@H](Cc1c[nH]c2ccccc12)C(=O)N[C@@H](CCCCNC(=O)COCCOCCNC(=O)COCCOCCNC(=O)CC[C@H](NC(=O)CCCCCCCCCCCCCCCCC(=O)O)C(=O)O)C(=O)N[C@@H](CC(C)C)C(=O)N[C@@H](C)C(=O)N[C@@H](CCC(N)=O)C(=O)NCC(=O)N1CCC[C@H]1C(=O)N[C@@H](CO)C(=O)N[C@@H](CO)C(=O)NCC(=O)N[C@@H](C)C(=O)N1CCC[C@H]1C(=O)N1CCC[C@H]1C(=O)N1CCC[C@H]1C(=O)N[C@@H](CO)C(N)=O)C(C)C) [Example 93] | > 5000 | 0.00482 | 884
3 | Y[Aib]EGT[αMePhe(2-F)]ISDYSILLDKIHQ[Aib]DFVE[4Pal]K([AEEA-AEEA-γGlu-C20 diacid])LEQGPSSGAPPPS-NH2 (N-terminus assumed; SMILES CC[C@H](C)[C@H](NC(=O)[C@H](CO)NC(=O)[C@H](Cc1ccc(O)cc1)NC(=O)[C@H](CC(=O)O)NC(=O)[C@H](CO)NC(=O)[C@@H](NC(=O)[C@](C)(Cc1ccccc1F)NC(=O)[C@@H](NC(=O)CNC(=O)[C@H](CCC(=O)O)NC(=O)C(C)(C)NC(=O)[C@@H](N)Cc1ccc(O)cc1)[C@@H](C)O)[C@@H](C)CC)C(=O)N[C@@H](CC(C)C)C(=O)N[C@@H](CC(C)C)C(=O)N[C@@H](CC(=O)O)C(=O)N[C@@H](CCCCN)C(=O)N[C@H](C(=O)N[C@@H](Cc1c[nH]cn1)C(=O)N[C@@H](CCC(N)=O)C(=O)NC(C)(C)C(=O)N[C@@H](CC(=O)O)C(=O)N[C@@H](Cc1ccccc1)C(=O)N[C@H](C(=O)N[C@@H](CCC(=O)O)C(=O)N[C@@H](Cc1ccncc1)C(=O)N[C@@H](CCCCNC(=O)COCCOCCNC(=O)COCCOCCNC(=O)CC[C@H](NC(=O)CCCCCCCCCCCCCCCCCCC(=O)O)C(=O)O)C(=O)N[C@@H](CC(C)C)C(=O)N[C@@H](CCC(=O)O)C(=O)N[C@@H](CCC(N)=O)C(=O)NCC(=O)N1CCC[C@H]1C(=O)N[C@@H](CO)C(=O)N[C@@H](CO)C(=O)NCC(=O)N[C@@H](C)C(=O)N1CCC[C@H]1C(=O)N1CCC[C@H]1C(=O)N1CCC[C@H]1C(=O)N[C@@H](CO)C(N)=O)C(C)C)[C@@H](C)CC) [Example 121] | > 5000 | 0.0196 | > 5000
4 | Y[Aib]EGTFISDYSI[αMeL]LDKK([AEEA-AEEA-γGlu-C20 diacid])HQ[Aib]DFVE[αMeY]LLEGGPSSGAPPPS-NH2 (N-terminus assumed; SMILES CC[C@H](C)[C@H](NC(=O)[C@H](Cc1ccccc1)NC(=O)[C@@H](NC(=O)CNC(=O)[C@H](CCC(=O)O)NC(=O)C(C)(C)NC(=O)[C@@H](N)Cc1ccc(O)cc1)[C@@H](C)O)C(=O)N[C@@H](CO)C(=O)N[C@@H](CC(=O)O)C(=O)N[C@@H](Cc1ccc(O)cc1)C(=O)N[C@@H](CO)C(=O)N[C@H](C(=O)N[C@@](C)(CC(C)C)C(=O)N[C@@H](CC(C)C)C(=O)N[C@@H](CC(=O)O)C(=O)N[C@@H](CCCCN)C(=O)N[C@@H](CCCCNC(=O)COCCOCCNC(=O)COCCOCCNC(=O)CC[C@H](NC(=O)CCCCCCCCCCCCCCCCCCC(=O)O)C(=O)O)C(=O)N[C@@H](Cc1c[nH]cn1)C(=O)N[C@@H](CCC(N)=O)C(=O)NC(C)(C)C(=O)N[C@@H](CC(=O)O)C(=O)N[C@@H](Cc1ccccc1)C(=O)N[C@H](C(=O)N[C@@H](CCC(=O)O)C(=O)N[C@@](C)(Cc1ccc(O)cc1)C(=O)N[C@@H](CC(C)C)C(=O)N[C@@H](CC(C)C)C(=O)N[C@@H](CCC(=O)O)C(=O)NCC(=O)NCC(=O)N1CCC[C@H]1C(=O)N[C@@H](CO)C(=O)N[C@@H](CO)C(=O)NCC(=O)N[C@@H](C)C(=O)N1CCC[C@H]1C(=O)N1CCC[C@H]1C(=O)N1CCC[C@H]1C(=O)N[C@@H](CO)C(N)=O)C(C)C)[C@@H](C)CC) [Example 91] | 289 | 0.0321 | 530
5 | Y[Aib]EGTFISDYSI[αMeL]LD[Orn]IHQ[Aib]EFVE[4Pal]K([AEEA-AEEA-γGlu-C20 diacid])LEAGPSSGAPPPS-NH2 (N-terminus assumed; SMILES CC[C@H](C)[C@H](NC(=O)[C@H](CCCN)NC(=O)[C@H](CC(=O)O)NC(=O)[C@H](CC(C)C)NC(=O)[C@](C)(CC(C)C)NC(=O)[C@@H](NC(=O)[C@H](CO)NC(=O)[C@H](Cc1ccc(O)cc1)NC(=O)[C@H](CC(=O)O)NC(=O)[C@H](CO)NC(=O)[C@@H](NC(=O)[C@H](Cc1ccccc1)NC(=O)[C@@H](NC(=O)CNC(=O)[C@H](CCC(=O)O)NC(=O)C(C)(C)NC(=O)[C@@H](N)Cc1ccc(O)cc1)[C@@H](C)O)[C@@H](C)CC)[C@@H](C)CC)C(=O)N[C@@H](Cc1c[nH]cn1)C(=O)N[C@@H](CCC(N)=O)C(=O)NC(C)(C)C(=O)N[C@@H](CCC(=O)O)C(=O)N[C@@H](Cc1ccccc1)C(=O)N[C@H](C(=O)N[C@@H](CCC(=O)O)C(=O)N[C@@H](Cc1ccncc1)C(=O)N[C@@H](CCCCNC(=O)COCCOCCNC(=O)COCCOCCNC(=O)CC[C@H](NC(=O)CCCCCCCCCCCCCCCCCCC(=O)O)C(=O)O)C(=O)N[C@@H](CC(C)C)C(=O)N[C@@H](CCC(=O)O)C(=O)N[C@@H](C)C(=O)NCC(=O)N1CCC[C@H]1C(=O)N[C@@H](CO)C(=O)N[C@@H](CO)C(=O)NCC(=O)N[C@@H](C)C(=O)N1CCC[C@H]1C(=O)N1CCC[C@H]1C(=O)N1CCC[C@H]1C(=O)N[C@@H](CO)C(N)=O)C(C)C) [Example 122] | > 5000 | 0.01 | > 5000
